According to the DeepSol protein solubility set:

Assay: soluble on expression in E. coli; label from the status in PepcDB or PDB records

Row | Sequence | soluble on expression in E. coli
1 | MGSDKIHHHHHHMKSYLTPLALLVSSVFSTVAYAETQLFVTTSSTQDAPLHIVYPTGIRIGQAVQDGLQQLPLYNKTNNKEVMPIYWLGAALVDLENTAVLETKRQQVLSQLAQMGEATNDSRYITKLAQLAQFLRGIKLGQRVMQPLDIDAIRITESYNAIIEGKYQLVLPPRPSTITLVGAVTQTGNMPWQSQTSSKDYLKQAGLLENAETSFVWIIQPDGNAIRQPIAYWNYQAQDIAPGATLFVEFSSLFDGYANLNENIIELLKNRTL | not soluble
2 | MGSDKIHHHHHHMKTPLVITALSLCLPFMAHAGSSFVEGDDILAGEVELGATLTTGNTDTSSFKGRLALKHELGNWENQYLLEGLYKEDTETVTAKRYIVGAQGDYLIDHDSYIFSNMNYEVDPFTGYEYSFTAASGYGHKFINDDRTKLKAEIGPGFIYQKLDSTLAAIEGYDTDKSVVAHAVINFETKLGDSSKFGQKLVMDMGEKIDARSETSLTANIVGALAMKFAVIVRYNSNPLDSKTSTDTETNMTLLYAF | not soluble
3 | MGSDKIHHHHHHMKTPWLVNGKLANLYLLYGTERHLLEEWEREIVKAALPDGERFDYMKIDLNDQPLDAVLDEAETVPFLSDYRVVIAKPATFLTGAKDKKTHNVERLAEYIVQPADYAVVVLIVEAEKLDERKTIVKRLKDRAVILEAKKPTTEELFRFVMDAVNDKGYRMERPAIERLIFLTGEMWATLTRELDKLMLYAGDHPTIELEDVNLLVPRTLEDNVFQLTDYLMKRQLEPAIRLIRDLEKQGQEVLALLGLMARQYRMMLLSKRLAEQGYGERQIASKVGAHPYAIKLALQAGKRFTFAQLEQALVAITTTDEGMKTGRGDKRILFDALIVRLATL | not soluble
4 | MGSDKIHHHHHHMKTRADLFAFFDAHGVDHKTLDHPPVFRVEEGLEIKAAMPGGHTKNLFLKDAKGQLWLISALGETTIDLKKLHHVIGSGRLSFGPQEMMLETLGVTPGSVTAFGLINDTEKRVRFVLDKALADSDPVNFHPLKNDATTAVSQAGLRRFLAALGVEPMIVDFAAMEVVG | soluble
5 | MGSDKIHHHHHHMKTSLGPIQYCWPKEKVVEFYEAVAQSSVPLVYLGETVCSRRRELKFSDYLALAQMLKAAGKEVVLSTLTLIEAQSEFLELKKQVENGEFTIEANDVGAIYLAKEHGIPFVCGPSINSYNAATLKKFASWGMQRFVMPLELSKAWLTQVLDDLAPRQVEVEVFGHGFMPLAHSARCFTARHKGLTKDKCQTICIENPEGLLVQTQEDQPLLRLNGIQTQSANYMDLCDQQTQMQALGVDYFRISPSSLASIALADKLPAKSASHDRQCNGYWHQLPGLALS | not soluble
6 | MGSDKIHHHHHHMKTTALRLYGKRDLRLETFDLPEMQEDEILATVVTDSLCLSSWKEANLGENHKKVPDDVTTNPIIIGHEFCGDILAVGKKWQHKFQPGQRYVIQANLQLPDRPDCPGYSFPWVDGEATHVVIPNEVMEQYCLLAYDGETYFEGSLVEPLSCVIGAFNANYHLQEGSYNHTMGIRPQGHTLILGGTGPMGLLAIDYALHGPVNPSLLVITDTDNDKLSYARKHYPSEPQTLIHYLNATDAAFDTLMALSGGHGFDDIFVFVPNEGLVTLASSLLATDGCLNFFAGPQDKHFSAPINFYDVHYAFTHYVGTSGGNTDDMRAAVKLIEEKKVQAAKVVTHILGLNAAGETTLELPAVGGGKKLVYTGKYLPLTSLTQIQDQALAAILARHQGIWSGEVEQYLLAHAEAISHD | not soluble
7 | MGSDKIHHHHHHMKVGIDAGGTLIKIVQEQDNQRTFKTELTKNIDQVVEWLNQQQIEKLCLTGGNAGVIAENINIPAQIFVEFDAASQGLGILLKEQGHDLADYIFANVGTGTSLHYFDGQSQRRVGGIGTGGGMIQGLGYLLSQITDYKQLTDMAQHGDRNTIDLKVRHIYKDTEPPIPGDLTAANFGHVLHHLDADFTPSNKLAAVIGVVGEVVTTMAITVAREFKTENIVYIGSSFHNNALLRKVVEDYTVLRGCKPYYVENGAFSGAIGALYLEK | not soluble
8 | MGSDKIHHHHHHMKVHLIGHASLFVETLDCNILMDPLLWNPGISEGMQDICPKRQVLHDQIPEFDILVISHQHIDHFNIRSLANLPKHVDVLIPKDQFLETCLRKLGYRHIYPLKDFNEVRIGSTRLVATRSENRVPEYGMIFADSDGVFWNQVDSIVNAQTINEVKSRYPQINFLLAPWQPLLQIQYQYNECVIFPYASYSHLLKIIGLTAPKAIAPGANGFKQINGSSWLNQIVFPVTREQFCHDVQQAYPTIQDRIFSFDPGDVITLNNGEVSHSPQKSTFVKKLADDSDSLYFSPVNTDSKLIDDNPEGYDIEQMKSVIEEEICIHLTKFFNDKKDSLFMEYGYWKAIYQLEVIFPTHSEAWYFDFSEHSIQCRRGKNPLANVFTLIAASSFYGLLKGIKGWDYANFGGYYRCFNKVYQATLYGIIRPFDDSNQGIPDPLSLKFPYKEVYERVRFYEIEKWGQVNDEQTIDKNSQNPMVIIGNTLIKPQHKVQCI | not soluble
9 | MGSDKIHHHHHHMKVIKRLERYLSAAFSLGRIKSMSKDAQREIAELRLELGTLSQELKHTRQETERMWAWMRRHEALADDLVSVSRREAEVLKRTGQSDTALLLRMFSDLSRRIDGGESGRPDEKAPSSNGLPSSTGFEMFKDAFYHRFENQWRGAPEEISQRLKVYLPDVEAAWARAENKPIFDIGCGRGEWLGLLRQHGMEGIGFDTNAVQIKEGQAAGLDLRLGDALEALAQAEDNSLSVISAHHLIEHLPFDSVAWLTREAGRVLAPGGLLLFETPNTRNVLVGATTFYTDPTHLKPMPEQVMGVLLETAGFEPVDIRHINPHERLGEFLDRPGFDNELAQLMFGPQDLAILGIKSKDK | not soluble
10 | MGSDKIHHHHHHMKVLLIIPAYNEEENILRTIASIETFKQEVTHFQHELDYVVINDGSTDGTKQILEANQINAIHLVLNLGIGGAVQTGYKYALENEYDVAVQFDGDGQHDINSLPILLEPLAEGKCDFSIGSRFIPGNEASFQSTKMRRFGIRLLSFCIRMASGKTIYDVTSGYRAGNRKVIAFFAKRYPTNYPEPESIVHLIKKRFVIVERPVNMMERLGGVSSIRALASVKYMLEVGSAILIAAFMKEGD | not soluble
11 | MGSDKIHHHHHHMKYLIVVAHPDDEVLGAGASISRWTQNGDIVDVAIMCAEAKARAFRPDDNELEDDTNASTKYLGVDRIFEATFPNIEMNTVPHLRLVQFIESAIKESEPDIVITHHPADTNNDHLQTSMACQEAIRLFQRRPEVKRVKEFWYMEVPSCTEWAINNAMNLFRPNCYVEVGQEGVDAKITALGMYRGVMRPYPHPRSAEYITGLAAVRGSQWGTNYAESFEIVLREY | not soluble
12 | MGSDKIHHHHHHMLCNETTSTRDLILLGLKRHGERSVGEMAKELEITEMAVRRHIQALEKDGFVQTKLVRQAMGRPTTKYLLTEKGEERFPRNYLPLTLGFLKDIEELSGIDMIHVLFEKRKERLLAEYANQMKGCSFSERVEVLAQIQNDNGYMVEWKKIDDDTYQFIEYNCPISQVAKAYPVACACEKKLFKELLQTEAVVDNCCAAKDEAGYCSYTLKKPSVDG | not soluble
13 | MGSDKIHHHHHHMLDAQHIQALKEIVGEENCFDDKAHKLAYCYDATRNRYEPDAVIFPRCEEDVSRLLAYCNTHKITIVPRGAGSGFTGGSLPVNGGIVLAFEKHMNKILEIDMENMVARVQPGVVNKRLQEAVEAMGLFYPPDPASEEYSTLGGNVSENAGGMRAAKYGITKDYVMALRAVLPNGDIIRAGKKTIKDVAGYNIAGILIASEGTLAVITEITLKLLSKPKLRQSAMGVFPTIESAMNAVYKTMAAGVTPVAMEFLDNLTIRAVESKFSKGLPVEAGAILITDMDGNLPEEIELQMAKIEEKFKENGALSFKKAASEEEAKDLWFARRNASQSVTIYGKKKLNEDITVPRSKLPELLQRINAISERYGVKTPCFGHTGDGNVHVNVMVEDGSDPKQLEIGHQAIEEIFKAAVELEGTLSGEHGIGISKAPFMHLAFTPEEMNLFRAIKQAFDPNNILNNGKMAL | not soluble
14 | MGSDKIHHHHHHMLDIHWLKTFVTLAEHKHFGKAATALHMTQPNVSLHIKQLEQSTRVKLIDRNPFRLTQAGFRLLESSQKTLMELQICQADLNAINDLSQGTLTIAASDIISRLLLIQPFQLFKAEFPGIDFSLLNTTSSQASELVKNAEADLGFVIAQKESQPLHFTELQQIKWCAIGDNLQQWQQANLSVDTPLAEQPTLILLGHDTRTRELLDPALPSLNLPNYRIMEVGSVDAQIDWAEAGFGVAIVPEFSVYTKANLTTKVTPLPQFPTTSLGYIVRQNQILSKAIKQLLYWVNQEIIRSQR | not soluble
